Experimental data from PMC9959508.

Target: human angiotensin-converting enzyme 2 (human) (UniProt Q9BYF1)
Sequence (Q9BYF1 18-805): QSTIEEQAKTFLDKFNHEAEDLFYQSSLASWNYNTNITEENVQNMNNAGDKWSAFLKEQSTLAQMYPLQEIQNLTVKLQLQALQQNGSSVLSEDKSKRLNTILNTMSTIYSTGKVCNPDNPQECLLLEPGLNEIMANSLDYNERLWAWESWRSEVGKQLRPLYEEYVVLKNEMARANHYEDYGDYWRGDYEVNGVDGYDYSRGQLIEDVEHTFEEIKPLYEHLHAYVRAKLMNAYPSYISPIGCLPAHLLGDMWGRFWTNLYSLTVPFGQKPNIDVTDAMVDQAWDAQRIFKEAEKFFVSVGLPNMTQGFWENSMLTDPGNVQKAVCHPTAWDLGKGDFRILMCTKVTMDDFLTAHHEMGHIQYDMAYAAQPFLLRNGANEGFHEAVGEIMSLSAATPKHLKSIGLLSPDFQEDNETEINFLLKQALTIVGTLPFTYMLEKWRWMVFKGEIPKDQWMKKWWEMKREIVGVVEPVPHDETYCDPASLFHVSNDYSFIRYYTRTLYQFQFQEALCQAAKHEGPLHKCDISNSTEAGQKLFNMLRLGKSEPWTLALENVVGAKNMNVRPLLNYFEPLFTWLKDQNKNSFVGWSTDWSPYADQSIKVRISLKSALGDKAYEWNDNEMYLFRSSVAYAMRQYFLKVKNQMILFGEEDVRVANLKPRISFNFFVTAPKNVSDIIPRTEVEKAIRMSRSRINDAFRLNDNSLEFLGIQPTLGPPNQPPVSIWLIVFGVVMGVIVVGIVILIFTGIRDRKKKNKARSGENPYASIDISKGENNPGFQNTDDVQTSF

PCSK9 lacking the M2 module of the CHRD, sequence (Q8NBP7 31-152): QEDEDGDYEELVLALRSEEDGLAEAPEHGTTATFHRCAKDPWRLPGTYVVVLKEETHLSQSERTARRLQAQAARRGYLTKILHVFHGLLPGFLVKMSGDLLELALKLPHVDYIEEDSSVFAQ
PCSK9 lacking the M2 module of the CHRD, sequence (Q8NBP7 153-692): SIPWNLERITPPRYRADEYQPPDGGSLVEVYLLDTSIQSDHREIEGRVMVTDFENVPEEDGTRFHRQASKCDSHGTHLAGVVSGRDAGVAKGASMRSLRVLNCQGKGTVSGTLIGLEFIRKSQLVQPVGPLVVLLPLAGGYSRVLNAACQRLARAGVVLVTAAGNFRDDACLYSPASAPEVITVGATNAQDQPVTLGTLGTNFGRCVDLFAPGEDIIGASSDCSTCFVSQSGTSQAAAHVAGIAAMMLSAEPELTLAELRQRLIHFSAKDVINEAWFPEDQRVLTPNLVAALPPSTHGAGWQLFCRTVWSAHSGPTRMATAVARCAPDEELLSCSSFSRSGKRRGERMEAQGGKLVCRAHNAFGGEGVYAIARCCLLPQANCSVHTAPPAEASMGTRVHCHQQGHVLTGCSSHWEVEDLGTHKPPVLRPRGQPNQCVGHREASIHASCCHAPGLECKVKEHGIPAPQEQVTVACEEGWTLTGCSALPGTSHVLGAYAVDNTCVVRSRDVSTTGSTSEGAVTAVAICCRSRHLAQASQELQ
wild-type human PCSK9, mature (prodomain non-covalently bound to the rest of the protein), sequence (Q8NBP7 31-152): as the sequence (Q8NBP7 31-152) above
wild-type human PCSK9, mature (prodomain non-covalently bound to the rest of the protein), sequence (Q8NBP7 153-692): as the sequence (Q8NBP7 153-692) above
PCSK9 lacking the CHRD, sequence (Q8NBP7 31-152): as the sequence (Q8NBP7 31-152) above
PCSK9 lacking the CHRD, sequence (Q8NBP7 153-455): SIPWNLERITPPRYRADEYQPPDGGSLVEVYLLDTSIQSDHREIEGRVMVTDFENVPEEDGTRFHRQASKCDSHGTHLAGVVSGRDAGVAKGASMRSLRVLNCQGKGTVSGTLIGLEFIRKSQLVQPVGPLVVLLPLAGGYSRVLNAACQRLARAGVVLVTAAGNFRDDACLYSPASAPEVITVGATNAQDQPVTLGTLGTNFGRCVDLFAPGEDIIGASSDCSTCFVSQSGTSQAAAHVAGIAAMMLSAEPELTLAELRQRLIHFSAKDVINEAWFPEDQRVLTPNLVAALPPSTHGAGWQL

Row | reduction of the level of ACE2 in HeLa cells after 18 h with conditioned medium (Western blot, relative to β-actin) | reduction of the level of ACE2 in HeLa cells after 18 h with PCSK9 conditioned medium (Western blot, relative to β-actin) | Substance
1 | 50% |  | PCSK9 lacking the M2 module of the CHRD (from UniProt Q8NBP7 31-152; Q8NBP7 153-692) (natural protein)
2 | 90% |  | PCSK9-D374Y, gain-of-function natural variant (from UniProt Q8NBP7 31-152; Q8NBP7 153-692) (natural protein)
3 | 50% |  | PCSK9 lacking the CHRD (from UniProt Q8NBP7 31-152; Q8NBP7 153-455) (domain or fragment)
4 |  | 30% | wild-type human PCSK9, mature (prodomain non-covalently bound to the rest of the protein) (from UniProt Q8NBP7 31-152; Q8NBP7 153-692) (natural protein)
